Consider 1 molecule from US20200063100A1 (CRISPR THERAPEUTICS, published 2020).

In the test the target is T1, biotinylated recombinant human BCMA (ACROS Cat# BC7-H82F0) (human, UniProt Q02223 1-54, biotinylated).
T1 construct: Bought reagent; also called biotinylated Human BCMA Protein, ACRO Biosystems; recombinant BCMA protein
T1 sequence (looked up): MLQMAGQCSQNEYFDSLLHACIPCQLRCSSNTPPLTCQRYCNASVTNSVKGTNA
Briefly: flow cytometry, CAR T cells stained with biotinylated antigen. For orientation: In flow cytometry, cells or beads pass a laser one at a time.

B1: anti-BCMA CAR, expressed on gene-edited human T cells (other)
chain: QVQLVQSGAELKKPGASVKVSCKASGNTLTNYVIHWVRQAPGQRLEWMGYILPYNDLTKYSQKFQGRVTITRDKSASTAYMELSSLRSEDTAVYYCTRWDWDGFFDPWGQGTTVTVSSGGGGSGGGGSGGGGSEIVMTQSPATLSVSPGERASISCRASQSLVHSNGNTHLHWYQQRPGQAPRLLIYSVSNRFSEVPARFSGSGSGTDFTLTISSVESEDFAVYYCSQTSHIPYTFGGGTKLEIKSAAAFVPVFLPAKPTTTPAPRPPTPAPTIASQPLSLRPEACRPAAGGAVHTRGLDFACDIYIWAPLAGTCGVLLLSLVITLYCNHRNRKRGRKKLLYIFKQPFMRPVQTTQEEDGCSCRFPEEEEGGCELRVKFSRSADAPAYQQGQNQLYNELNLGRREEYDVLDKRRGRDPEMGGKPRRKNPQEGLYNELQKDKMAEAYSEIGMKGERRRGKGHDGLYQGLSTATKDTYDALHMQALPPR
notes: also called anti-BCMA (4-1BB co-stim) CAR
In the case of B1, the binding result was “binds”.
